Experimental data as given in PMC4380410.

B1: P2 control probe (LC14/LC15) (dsDNA)
DNA 1: TGTGGTTCGCGTCCATGGGTGTCAGGCGGATGCTTAAGTC
DNA 2: GACTTAAGCATCCGCCTGACACCCATGGACGCGAACCACA
B2: P1 probe (LC12/LC13) (dsDNA)
DNA 1: CGAATGCGGGGACTAGGGATTCTCCTAGTCGACCTTCGTT
DNA 2: AACGAAGGTCGACTAGGAGAATCCCTAGTCCCCGCATTCG

Columns and labels:
[1] = target: CfaR^ΔLuxR-HIS6 (Streptomyces scabies); assay: cross-linking; glutaraldehyde (1 μL of 2.3% w/v) added to 80 pmol purified protein in 20 mM sodium phosphate pH 7.5, 20 μL, 5 min at 37°C; stopped with Tris-HCl pH 8.0; SDS-PAGE (12%), Coomassie staining
[2] = target: CfaR^full-HIS6 (Streptomyces scabies); assay: as above
[3] = target: T1, CfaRfull-HIS6 (Streptomyces scabies 87-22) (UniProt C9ZEC8); assay: EMSA; conditions: LightShift Chemiluminescent EMSA kit per manufacturer; buffer, salt, pH and temperature not stated (protein stored in 20 mM sodium phosphate, 150 mM NaCl, 20% …)
T1 sequence: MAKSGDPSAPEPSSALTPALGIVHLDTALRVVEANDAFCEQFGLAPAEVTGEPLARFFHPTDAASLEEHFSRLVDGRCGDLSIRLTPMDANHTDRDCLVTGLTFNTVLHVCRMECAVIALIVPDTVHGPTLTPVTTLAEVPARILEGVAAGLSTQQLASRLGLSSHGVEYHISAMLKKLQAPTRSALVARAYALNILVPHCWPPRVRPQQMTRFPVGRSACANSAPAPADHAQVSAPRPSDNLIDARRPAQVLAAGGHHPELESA

[4] = target: CfaRfull-HIS6 (Streptomyces scabies 87-22, UniProt C9ZEC8 1-265); assay: EMSA; 0.1 pmol probe, 2 pmol protein; LightShift Chemiluminescent EMSA kit per manufacturer; buffer, salt, pH and temperature not stated (protein stored in 20 mM sodium phosphate, 150 mM NaCl, 20% glycerol, pH 7.8); conditions: protein: recombinant; tags: C-terminal His6; chain copies: 2; blunt

Molecule | binding [3] | binding result [4] | other results
CfaR^ΔLuxR-HIS6 (domain or fragment) | – | – | stoichiometry N [1]: 2
CfaR^full-HIS6 (natural protein) | – | – | stoichiometry N [2]: 2
GACCTTCGTTCTGTAGCCCTTGTATGGTCGCATTGCCTCCGCAGGTCGACCCCTTTCGGCACCATAGGAGACCCTCTTGGCGAACATCGAATCGACCATCAAGCACATCCTGGTCGACGATCTCTTCATCACTGTGCCG (double strand) [fragment b] | no binding | – | –
GCACAGGAAGGAGGAGAACCCCTCACCTCGGGCCCTTGGACCCGACACACCCGCAGCGCGTGCGACGGTTCCTGCGCCGGCCGGCCTGACAAACCAGGGCGAGACGCCGCATCTGCGGAACCGGTCGACCCGCAGACGAATCGTGGCCGACGCCAACCCGAATGCGGG (double strand) [fragment c] | no binding | – | –
B1 | – | no binding | –
B2 | – | binds | –
